The results in this text go back to US20130230533A1 (Regeneron, published 2013).

One test deals with T1, Dimeric human CD48-mFc (human).
T1 chain: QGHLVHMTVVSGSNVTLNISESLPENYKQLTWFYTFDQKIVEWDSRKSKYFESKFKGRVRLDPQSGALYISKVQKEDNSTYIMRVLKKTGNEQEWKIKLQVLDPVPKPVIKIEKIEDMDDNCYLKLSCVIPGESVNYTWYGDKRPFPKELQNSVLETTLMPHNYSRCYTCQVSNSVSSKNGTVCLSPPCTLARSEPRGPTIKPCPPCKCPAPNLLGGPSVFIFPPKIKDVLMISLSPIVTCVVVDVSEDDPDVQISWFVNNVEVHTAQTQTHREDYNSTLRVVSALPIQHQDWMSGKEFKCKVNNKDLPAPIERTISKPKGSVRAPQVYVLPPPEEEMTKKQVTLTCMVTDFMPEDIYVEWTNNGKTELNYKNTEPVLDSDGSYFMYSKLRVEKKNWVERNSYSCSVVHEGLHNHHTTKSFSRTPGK
As to the kind of experiment: SPR (Biacore T100), 25 C, antibody captured by anti-Fc, dimeric CD48-mFc in solution. Here is the method: (§1) Measurements were conducted on a T100-2 BIACORE™ instrument (Biacore Life Sciences division of GE Healthcare, Piscataway, N.J.). Antibodies (either with mouse Fc [designated “H2M” or “H3M”] or human IgG4 Fc [designated “H4H”]) were captured through an anti-Fc chip surface, and CD48 was flowed over the surface either in a monomeric (soluble CD48 expressed with a myc-myc-hexa-histidine C-terminal tag [mmH]) or dimeric (soluble CD48 expressed with a C-terminal Fc fusion [mFc]) format.
(§2) The soluble CD48 was applied to the flow cell in separate injections at different concentrations, and kinetic association (kₐ) and dissociation (kd) rate constants were determined by fits to the kinetic binding data using Biacore software. Binding dissociation equilibrium constants and dissociation half-times were calculated from the kinetic rate constants as: KD=kd/kₐ; t_{1/2}=(ln 2/kd) (units: ka=M⁻¹*s⁻¹; kd=s⁻¹; KD=M; T½=min) (Tables 3-6).
(In general: Surface plasmon resonance follows binding to a sensor surface in real time, without labels.)

The next test addresses T2, Monomeric human CD48-mmH (human).
T2 construct: also called soluble CD48 expressed with a myc-myc-hexa-histidine C-terminal tag [mmH]
T2 chain: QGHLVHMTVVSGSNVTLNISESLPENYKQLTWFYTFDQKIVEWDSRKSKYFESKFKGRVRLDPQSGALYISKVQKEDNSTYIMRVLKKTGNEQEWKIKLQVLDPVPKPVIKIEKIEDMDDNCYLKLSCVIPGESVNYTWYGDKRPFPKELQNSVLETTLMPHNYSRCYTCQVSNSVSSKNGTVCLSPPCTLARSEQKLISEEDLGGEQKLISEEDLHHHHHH
In words: SPR (Biacore T100), 25 C, antibody captured by anti-Fc, monomeric CD48-mmH in solution. As to the method:
as §1, §2

B1: H2M1763N (antibody, mouse IgG2, V domains shown)
VH: QIQLVQSGAEMKRPGTSVKVSCKASGYTFTSYGINWVRQAPGQGLEWMGWISAYNGDTNYAQKLQGRVTMTTDTSTTTAYMEVRSLRSDDTAVYYCARFLTGTKDYYYGMDVWGQGTTVTVSS
VL: DIQMTQSPSSLSASVGDRVTITCQASQDISNFLNWYQQKPGKAPDLLINDASILETGVPSRFSGSGSGTDFTLTINNLQPEDIATYYCQQYDNLPLTFGGGTKVEIK
notes: Human variable domains, mouse IgG2 Fc (prefix H2M)
The Kd is the equilibrium constant for the complex coming apart. A high value points to lower affinity. One may read the koff as a measure of how fast the partners let go of each other. Usually kon stands for a measure of how fast the partners come together. Low values mean slower complex formation, high ones faster complex formation. B1: in the test with Dimeric human CD48-mFc, the Kd is 0.256 nM, the T½ worked out at 23 min, the koff was determined as 0.000499 s⁻¹ and the on-rate constant (kon) is 1.95e+06 M⁻¹ s⁻¹. Also, in the test with Monomeric human CD48-mmH, binding was put at a Kd of 11.8 nM, the T½ came to 2 min, the koff came to 0.00648 s⁻¹ and the kon is 548000 M⁻¹ s⁻¹.

B2: H4H1763N (antibody, human IgG4, V domains shown)
VH: QIQLVQSGAEMKRPGTSVKVSCKASGYTFTSYGINWVRQAPGQGLEWMGWISAYNGDTNYAQKLQGRVTMTTDTSTTTAYMEVRSLRSDDTAVYYCARFLTGTKDYYYGMDVWGQGTTVTVSS
VL: DIQMTQSPSSLSASVGDRVTITCQASQDISNFLNWYQQKPGKAPDLLINDASILETGVPSRFSGSGSGTDFTLTINNLQPEDIATYYCQQYDNLPLTFGGGTKVEIK
notes: Human IgG4 Fc (prefix H4H)
For the molecule B2, in the test with Dimeric human CD48-mFc, the Kd was 0.0268 nM, the T½ was determined as 211 min, the koff was 5.48e-05 s⁻¹ and the kon came out at 2.05e+06 M⁻¹ s⁻¹. In the test with Monomeric human CD48-mmH, this molecule gave a Kd of 8.2 nM, a T½ of 2 min, a koff of 0.00631 s⁻¹ and an on-rate (kon) of 769000 M⁻¹ s⁻¹.

B3: H2M1712N (antibody, mouse IgG2, V domains shown)
VH: QIQLVQSGAEMKRPGTSVKVSCKASGYTFSSYGINWVRQAPGQGLEWMGWISAYNGDTNYAQKLQGRVTMTTDTSTTTAYMEVRSLRSDDTAVYYCARFLTGTKDLYYGMDVWGQGTTVTVSS
VL: DIQMTQSPSSLSASVGDRVTITCQASQDISNFLNWYQQKPGKAPDLLINDASILETGVPSRFSGSGSGTDFTLTINSLQPEDIATYYCQQYDNLPLTFGGGTKVEIK
notes: as for B1
In the test with Dimeric human CD48-mFc, B3 returned a Kd of 0.288 nM, a T½ of 22 min, a koff of 0.00053 s⁻¹ and a kon of 1.84e+06 M⁻¹ s⁻¹. In the test with Monomeric human CD48-mmH, the Kd amounted to 11.8 nM, the T½ was 2 min, the koff is 0.00619 s⁻¹ and the kon stood at 524000 M⁻¹ s⁻¹.

B4: H4H1789Pa (antibody, V domains shown)
VH: EVQLLESGGGLVHPGGSLRLSCAASGFTFGGYAMSWVRQAPGKGLEWVSLISGSGGSTYYADSVKGRFTIFRDNSKNTLYLQMISLRAEDSAVYYCAKYSNYDYFDPWGQGTLVTVSS
VL: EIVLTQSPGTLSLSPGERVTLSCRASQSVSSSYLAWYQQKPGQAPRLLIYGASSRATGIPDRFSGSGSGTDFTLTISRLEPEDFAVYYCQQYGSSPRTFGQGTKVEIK
notes: Human IgG4 Fc (prefix H4H)
In the test with Dimeric human CD48-mFc, B4 displayed a Kd of 0.0958 nM, a T½ of 315 min, a koff of 3.66e-05 s⁻¹ and a kon of 382000 M⁻¹ s⁻¹. In the test with Monomeric human CD48-mmH, the dissociation constant Kd turned out to be 3.2 nM, the T½ turned out to be 25 min, the koff was found to be 0.000458 s⁻¹ and the kon is 143000 M⁻¹ s⁻¹.

B5: H2M1709N (antibody, mouse IgG2, V domains shown)
VH: QVQLVQSGAEVKKPGASVKVSCKVSGYTLTELSIHWVRQAPGKGLEWMGGFDPEDGETIYAQKFQGRVNMTEDTSTDTAYMELSSLRSDDTTVYFCASLLPYFDYWGQGTLVTVSS
VL: EIVLTQSPGTLSLSPGERATLSCRASQSVSSSYLAWYQQKPGQAPRLLIYGASSRATGIPDRFSGSGSGTDFTLSISRLEPEDFAVYFCQQYGSSMYTFGQGTKLEIK
notes: as for B1
With B5, in the test with Dimeric human CD48-mFc, the equilibrium dissociation constant (Kd) is 0.311 nM, the T½ was 40 min, the koff is 0.000288 s⁻¹ and the kon is 928000 M⁻¹ s⁻¹. In the test with Monomeric human CD48-mmH, the Kd amounted to 19.8 nM, the T½ came to 2 min, the koff is 0.0058 s⁻¹ and the kon stood at 292000 M⁻¹ s⁻¹.

B6: H2M1713N (antibody, mouse IgG2, V domains shown)
VH: QVQLVQSGAEVKKPGASVKVSCKASGHTFTNYYIHWVRQAPGQGLEWMGITNPNDGNTRYAQKFQGRISMTWDTSTSTVFMELSSLKSEDTAVYYCAGLRYWFFDLWGRGTPVTVSS
VL: DIQMTQSPSSVSASVGDRVTITCRASQDISSWLAWYQQKPGKAPNLLIFAASSLQSGVPSRFSGSGSGTDFTLTISSLQPEDFGTYYCQQTDNFPRTFGQGTKVEIN
notes: as for B1
B6: in the test with Dimeric human CD48-mFc, the affinity, expressed as Kd, was 0.0134 nM; the T½ amounted to 1040 min; the koff was found to be 1.11e-05 s⁻¹; the kon turned out to be 826000 M⁻¹ s⁻¹. Moreover, in the test with Monomeric human CD48-mmH, the Kd came out at 1.35 nM, the T½ is 53 min, the koff was 0.000217 s⁻¹ and the kon turned out to be 161000 M⁻¹ s⁻¹.

B7: H4H1713N (antibody, human IgG4, V domains shown)
VH: QVQLVQSGAEVKKPGASVKVSCKASGHTFTNYYIHWVRQAPGQGLEWMGITNPNDGNTRYAQKFQGRISMTWDTSTSTVFMELSSLKSEDTAVYYCAGLRYWFFDLWGRGTPVTVSS
VL: DIQMTQSPSSVSASVGDRVTITCRASQDISSWLAWYQQKPGKAPNLLIFAASSLQSGVPSRFSGSGSGTDFTLTISSLQPEDFGTYYCQQTDNFPRTFGQGTKVEIN
notes: Human IgG4 Fc (prefix H4H)
In the test with Dimeric human CD48-mFc, B7 had a Kd of 0.0212 nM, a T½ of 609 min, a koff of 1.9e-05 s⁻¹ and a kon of 894000 M⁻¹ s⁻¹. In the test with Monomeric human CD48-mmH, this molecule registered a Kd of 0.893 nM, a T½ of 67 min, a koff of 0.000174 s⁻¹ and a kon of 194000 M⁻¹ s⁻¹.

B8: H2M1811N (antibody, mouse IgG2, V domains shown)
VH: QVQLVQSGAEAREPGASVRVSCKASGYTFTDYFIHWVRQAPGQGLEWMGWINPNSGATNFAQKFQGRVTMTRDTSLITAYMDLSRLKSDDAAVFYCARDVDGSGWYLDFWGQGTLVTVSS
VL: EIVLTQSPATLSLSPGERATLSCRASQSVSIYLAWYQQKPGQAPRLLIYDASNRATGIPARFSGSGSGTDFTLTISRLEPEDFAVYYCQQRSDWPPSITFGQGTRLEIK
notes: as for B1
In the test with Dimeric human CD48-mFc, B8 returned a Kd of 1.6 nM, a T½ of 50 min, a koff of 0.00023 s⁻¹ and a kon of 144000 M⁻¹ s⁻¹. In the test with Monomeric human CD48-mmH, this molecule registered a Kd of 17 nM, a T½ of 14 min, a koff of 0.000849 s⁻¹ and a kon of 50000 M⁻¹ s⁻¹.

B9: H2M1710N (antibody, mouse IgG2, V domains shown)
VH: QVQLVQSGADMKKPGASVRVSCKASGYTFTDYFIHWVRQAPGQGPEWMGWINPDSGATNYAQQFQGRVTMTRDTSISATYMEMSRLRSDDTAVFYCARDKDGSGWYLDDWGQGTLVTVSS
VL: EIVLTQSPATLSLSPGERATLSCRASQSVNIYLAWYQQKPGQAPRLLIYDASNRASGIPARFSGSGSGTDFTLTISSLEPEDFAVYYCQQRSNWPPSITFGQGTRLEIK
notes: as for B1
In the test with Dimeric human CD48-mFc, B9 had a dissociation constant (Kd) of 0.841 nM, a T½ of 123 min, a koff of 9.38e-05 s⁻¹ and a kon of 112000 M⁻¹ s⁻¹. In the test with Monomeric human CD48-mmH, this molecule returned a Kd of 39.1 nM, a T½ of 8 min, a koff of 0.00146 s⁻¹ and a kon of 37300 M⁻¹ s⁻¹.

B10: H2M1764N (antibody, mouse IgG2, V domains shown)
VH: QVQLVESGGGVVQPGRSLRLSCAASGFTFSDYGMHWVRQAPGKGLEWVAVIWNDGSNKNYADSVKGRFSISSDSSKNTLYLHMNSLRAEDTAVYYCARSLYSTSPWYFDLWGRGTLVTVSS
VL: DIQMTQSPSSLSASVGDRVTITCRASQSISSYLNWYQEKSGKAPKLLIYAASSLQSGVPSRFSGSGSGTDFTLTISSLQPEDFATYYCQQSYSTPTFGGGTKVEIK
notes: as for B1
In the test with Dimeric human CD48-mFc, B10 had a Kd of 1.03 nM, a T½ of 43 min, a koff of 0.000266 s⁻¹ and a kon of 259000 M⁻¹ s⁻¹. In the test with Monomeric human CD48-mmH, this molecule came in with a Kd of 23.5 nM, a T½ of 4 min, a koff of 0.00285 s⁻¹ and a kon of 121000 M⁻¹ s⁻¹.

B11: H4H1764N (antibody, human IgG4, V domains shown)
VH: QVQLVESGGGVVQPGRSLRLSCAASGFTFSDYGMHWVRQAPGKGLEWVAVIWNDGSNKNYADSVKGRFSISSDSSKNTLYLHMNSLRAEDTAVYYCARSLYSTSPWYFDLWGRGTLVTVSS
VL: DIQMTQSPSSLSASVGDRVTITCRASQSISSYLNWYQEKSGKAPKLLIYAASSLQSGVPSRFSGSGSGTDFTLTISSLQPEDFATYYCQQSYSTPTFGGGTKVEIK
notes: Human IgG4 Fc (prefix H4H)
Regarding B11, in the test with Dimeric human CD48-mFc, the dissociation constant Kd stood at 0.226 nM, the T½ was found to be 191 min, the koff turned out to be 6.05e-05 s⁻¹ and the kon is 268000 M⁻¹ s⁻¹. In the test with Monomeric human CD48-mmH, this molecule registered a Kd of 23.6 nM, a T½ of 5 min, a koff of 0.00248 s⁻¹ and a kon of 105000 M⁻¹ s⁻¹.
